Source: publication PMC6295060

How the values were obtained:
DMAP1 [1] = target: DMAP1 (UniProt Q9NPF5); experiment: pull-down of His-Bub3 and GST-DMAP1; settings: sites S211
DMAP1 [2] = target: DMAP1 (UniProt Q9NPF5); experiment: co-IP; settings: reference: WT Bub3, mitotic arrest; sites S211
DMAP1 [3] = target: DMAP1 (UniProt Q9NPF5); experiment: co-IP with anti-Flag antibody; settings: reference: WT Flag-rBub3; sites S211

Bub3 (from UniProt O43684) WT His-Bub3 with purified p38
binding against the reference (DMAP1 [1]; reference: WT His-Bub3 without p38): gained

Bub3 (from UniProt O43684) Bub3 S211A, mitotic arrest
binding against the reference (DMAP1 [2]): weaker

Bub3 (from UniProt O43684) His-Bub3 S211A
binding against the reference (DMAP1 [1]; reference: WT His-Bub3): lost

Bub3 (from UniProt O43684) Flag-rBub3 S211A
binding against the reference (DMAP1 [3]): lost
